# Residue numbers refer to the chain shown, from its start. Where no end group is shown, it is not given here.
# Legend:
# [1] = target: T1, CRF binding protein (CRF-BP) (Homo sapiens, UniProt P24387); assay: Binding to CRF binding protein by displacement of [D-125I-Tyr0]-hCRF; settings: data not shown
# T1 sequence (P24387 25-322): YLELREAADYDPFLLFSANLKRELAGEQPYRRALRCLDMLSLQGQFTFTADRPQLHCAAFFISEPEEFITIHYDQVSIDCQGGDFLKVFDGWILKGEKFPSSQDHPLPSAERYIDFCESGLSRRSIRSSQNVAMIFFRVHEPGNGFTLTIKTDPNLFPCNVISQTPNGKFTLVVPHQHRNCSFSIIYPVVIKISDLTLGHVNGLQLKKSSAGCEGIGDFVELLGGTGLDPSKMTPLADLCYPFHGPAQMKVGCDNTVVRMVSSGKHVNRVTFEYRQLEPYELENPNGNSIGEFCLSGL
# CRF-R1 = target: T2, CRF-R1 (Rattus norvegicus, UniProt P35353); assay: cAMP accumulation in primary rat anterior pituitary cells expressing endogenous CRF-R1; assay type: cell-based; settings: FIG. 3B; Ucn III even at concentrations >1 μM
# T2 construct: cells expressing endogenous CRF-R1 (cultured primary anterior pituitary cells, (5)) or CRF-R2β (A7r5 cells, (27)); endogenous in cells; host or cells: primary rat anterior pituitary cells in culture
# T2 sequence (P35353 24-415): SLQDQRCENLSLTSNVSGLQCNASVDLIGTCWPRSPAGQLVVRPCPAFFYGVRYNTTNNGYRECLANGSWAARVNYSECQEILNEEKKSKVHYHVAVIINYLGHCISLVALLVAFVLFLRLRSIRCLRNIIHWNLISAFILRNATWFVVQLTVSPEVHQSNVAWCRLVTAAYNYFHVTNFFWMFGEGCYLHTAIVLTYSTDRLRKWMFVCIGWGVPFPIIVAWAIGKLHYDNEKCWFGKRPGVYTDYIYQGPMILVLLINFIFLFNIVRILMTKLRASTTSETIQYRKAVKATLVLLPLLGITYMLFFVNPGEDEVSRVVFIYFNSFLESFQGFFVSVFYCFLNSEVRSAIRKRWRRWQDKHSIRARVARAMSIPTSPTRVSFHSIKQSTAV
# Method: The abilities of Ucn II and Ucn III to activate adenylate cyclase in cells expressing endogenous CRF-R1 (cultured primary anterior pituitary cells, (5)) or CRF-R2β (A7r5 cells, (27)). Rat aortic smooth muscle cells, A7r5, were plated into 48-well culture dishes and allowed to recover for 48 h. Cells were starved in DMEM/0.2% FBS overnight before the experiment. The cells were preincubated with 0.1 mM 3-isobutyl-1-methylxanthine for 30 min and then exposed to peptides for 20 min at 37° C. Rat anterior pituitary cells were established in culture (28) and treated with test peptides for 45 min at 37° C. Intracellular cAMP was extracted from all cells and measured from triplicate wells using a radioimmunoassay kit (Biomedical Technologies). Potencies were determined using the PRISM […].
# rats = assay: Intravenous Ucn III in rats: glucagon secretion and blood sugar; assay type: in vivo, rat; settings: given intravenously to rats
# Text: It has been shown by others that glucagon can act directly on the beta cell to stimulate insulin secretion in a paracrine manner. Thus, Ucn III may provide a means for the beta cell to signal the alpha cell, which produces glucagon which would then, in turn, drive the beta cell. Thus, Ucn III (or any CRF-R2 agonist) may be used to stimulate and sustain islet functions.
# hCRF-R1 = target: T3, hCRF-R1 (Homo sapiens, UniProt P34998); assay: cAMP accumulation in CHO cells stably expressing hCRF-R1; assay type: cell-based; settings: 1 μM
# T3 construct: expressed in transfected cells
# T3 sequence (P34998 24-415): T2 sequence (P35353 24-415) with R6H, N9S, T13A, V16I, V153M, A163G, V209I, H229Y, R356H
# Method: The medium was changed at least 2 h before treatments to DMEM/0.1% FBS. The cells were preincubated with 0.1 mM 3-isobutyl-1-methylxanthine for 30 min and then exposed to peptides for 20 min at 37° C.
Substance,Affinity for CRF-BP [1],Ability to increase cyclic AMP in cultured pituitary cells expressing CRF-R1 (CRF-R1),Glucagon secretion (rats),Blood sugar levels (rats; subsequent to glucagon rise),Activation of CRF-R1 (cAMP) at very high doses (hCRF-R1)
"urocortin II (IVLSLDVPIGLLQILLEQARARAAREQATTNARILARVGHC; ends and bridges not checked; UniProt Q96RP3 72-112, looked up) [Ucn II, urocortin II, species (human or mouse) not specified at the place, reference compound]",neither Ucn II nor Ucn III exhibit appreciable affinity,low potency,,,
"urocortin III (FTLSLDVPTNIMNLLFNIAKAKNLRAQAAANAHLMAQI; ends and bridges not checked; UniProt Q969E3 120-157, looked up) [Ucn III, urocortin III, species (human or mouse) not specified at the place]",neither Ucn II nor Ucn III exhibit appreciable affinity,inactive,rapidly stimulated glucagon secretion,elevates blood sugar levels,no activation
urocortin [Urocortin (rat)],subnanomolar,,,,
